Biological target: T1, 天然のヒトCD4(細胞表面) (human, UniProt P01730 26-458)
T1 construct: whole, on cells; also called nCD4; CD4 on SupT1 cells
Experiment: flow cytometry on SupT1 cells, serial dilutions, half-maximal fluorescence

Ka: > 1e+09 M⁻¹
B1: 4D1 (antibody, V domains shown)
VH: EVQLVQSGAEVKKPGESLKISCKGSGYSFTGYWIGWVRQMPGKGLEWMGIIYPGDSDTTYSPSFQGQVTISADKSISTAYLQWSSLKASDTAMYYCARDQLGLFDYWGQGTLVTVSS
VL: DIQMTQSPSSLSASVGDRVTITCRASQGISSWLAWYQQKPEKAPKSLIYSASSLQSGVPSRFSGSGSGTDFTLTISSLQPEDFATYYCQQYDSYPYTFGQGTKLEIK
